This is an account of results in ChEMBL document CHEMBL2074453, “Role of multidrug resistance protein 1 (MRP1) and glutathione S-transferase A1-1 in alkylating agent resistance. Kinetics of glutathione conjugate formation and efflux govern differential cellular sensitivity to chlorambucil versus melphalan toxicity” (J Biol Chem, 2001).

Substrate in data set [1]: NC(Cc1ccc(N(CCCl)CCSC[C@H](NC(=O)CC[C@H](N)C(=O)O)C(=O)NCC(=O)O)cc1)C(=O)O
Briefly: TP_TRANSPORTER: uptake in membrane vesicle from MCF7/VP cells. It counts as functional, cell membranes.

Substrate in data set [2]: NC(CCC(=O)NC(CSCCN(CCCl)c1ccc(CCCC(=O)O)cc1)C(=O)NCC(=O)O)C(=O)O
As to the kind of experiment: TP_TRANSPORTER: uptake in membrane vesicle from MCF/VP cells. It counts as functional, cell membranes.

B1: Multidrug resistance-associated protein 1 (Homo sapiens) (protein)
chain: MALRGFCSADGSDPLWDWNVTWNTSNPDFTKCFQNTVLVWVPCFYLWACFPFYFLYLSRHDRGYIQMTPLNKTKTALGFLLWIVCWADLFYSFWERSRGIFLAPVFLVSPTLLGITMLLATFLIQLERRKGVQSSGIMLTFWLVALVCALAILRSKIMTALKEDAQVDLFRDITFYVYFSLLLIQLVLSCFSDRSPLFSETIHDPNPCPESSASFLSRITFWWITGLIVRGYRQPLEGSDLWSLNKEDTSEQVVPVLVKNWKKECAKTRKQPVKVVYSSKDPAQPKESSKVDANEEVEALIVKSPQKEWNPSLFKVLYKTFGPYFLMSFFFKAIHDLMMFSGPQILKLLIKFVNDTKAPDWQGYFYTVLLFVTACLQTLVLHQYFHICFVSGMRIKTAVIGAVYRKALVITNSARKSSTVGEIVNLMSVDAQRFMDLATYINMIWSAPLQVILALYLLWLNLGPSVLAGVAVMVLMVPVNAVMAMKTKTYQVAHMKSKDNRIKLMNEILNGIKVLKLYAWELAFKDKVLAIRQEELKVLKKSAYLSAVGTFTWVCTPFLVALCTFAVYVTIDENNILDAQTAFVSLALFNILRFPLNILPMVISSIVQASVSLKRLRIFLSHEELEPDSIERRPVKDGGGTNSITVRNATFTWARSDPPTLNGITFSIPEGALVAVVGQVGCGKSSLLSALLAEMDKVEGHVAIKGSVAYVPQQAWIQNDSLRENILFGCQLEEPYYRSVIQACALLPDLEILPSGDRTEIGEKGVNLSGGQKQRVSLARAVYSNADIYLFDDPLSAVDAHVGKHIFENVIGPKGMLKNKTRILVTHSMSYLPQVDVIIVMSGGKISEMGSYQELLARDGAFAEFLRTYASTEQEQDAEENGVTGVSGPGKEAKQMENGMLVTDSAGKQLQRQLSSSSSYSGDISRHHNSTAELQKAEAKKEETWKLMEADKAQTGQVKLSVYWDYMKAIGLFISFLSIFLFMCNHVSALASNYWLSLWTDDPIVNGTQEHTKVRLSVYGALGISQGIAVFGYSMAVSIGGILASRCLHVDLLHSILRSPMSFFERTPSGNLVNRFSKELDTVDSMIPEVIKMFMGSLFNVIGACIVILLATPIAAIIIPPLGLIYFFVQRFYVASSRQLKRLESVSRSPVYSHFNETLLGVSVIRAFEEQERFIHQSDLKVDENQKAYYPSIVANRWLAVRLECVGNCIVLFAALFAVISRHSLSAGLVGLSVSYSLQVTTYLNWLVRMSSEMETNIVAVERLKEYSETEKEAPWQIQETAPPSSWPQVGRVEFRNYCLRYREDLDFVLRHINVTINGGEKVGIVGRTGAGKSSLTLGLFRINESAEGEIIIDGINIAKIGLHDLRFKITIIPQDPVLFSGSLRMNLDPFSQYSDEEVWTSLELAHLKDFVSALPDKLDHECAEGGENLSVGQRQLVCLARALLRKTKILVLDEATAAVDLETDDLIQSTIRTQFEDCTVLTIAHRLNTIMDYTRVIVLDKGEIQEYGAPSDLLQQRGLFYSMAKDAGLV
As usually defined, the Km is the concentration of substrate that gives half-maximal velocity. Regarding B1, the Km came to 1.14 µM in data set [1] and 0.37 µM in data set [2].
